Test results: the RNAGym collection of RNA variant scans (doi:10.1101/gr.219683.116)

B1: mRNA-splicing (parent)
chain: AGUUGCUGCUGGGAGCUCCAGCACAGUGAAAUGGACAGAAGGGCAGAGCAA

Variants of: B1
Experiment: exon inclusion enrichment index; higher = more inclusion; WT1 exon 5 minigene, HEK293

Row | Variant | exon inclusion enrichment index
1 | AGUUUCUUUUGGGAGCUCCUGCACAGUGAAAUGGACAGAAGGGCAGAGCAA | 0.191
2 | AGUUCUUCUCGGGAGCUCCAGCAGUGUGAAAUGGACAGAAGGGCAGAGCAA | 2.32
3 | AGUUUACACCGGGAGCUCCAGCACAGUGAAAUGGACAGAAGGGCAGAGCAA | 1.56
4 | AGUUAUAUAUGGGAGCUCCAGUGCAGUGAAAUGGACAGAAGGGCAGAGCAA | 0.0485
5 | AGUUUCUUUUGGGAGCUCCAGCAGGGUGAAAUGGACAGAAGGGCAGAGCAA | 0.0358
6 | AGUCGCCACCGGGAGCUCCAGCACAGUGAAAUGGACAGAAGGGCAGAGCAA | 3.91
7 | AGUUAGGGAUGGGAGCUCCAGCACAGUGAAAUGGACAGAAGGGCAGUGCAA | 0.00119
8 | AGUUAUAUAUGGGAGCUCCAGCACUCUGAAAUGGACAGAAGGGCAGAGCAA | 0.157
9 | AGUUGAAGAAGGGAGCUCCUACACAGUGAAAUGGACAGAAGGGCAGAGCAA | 0.432
10 | AGUUGACGACGGGAUAUCCAGCACAGUGAAAUGGACAGAAGGGCAGAGCAA | 2.78
11 | AGUUCACACAGGGAAUUCCAGCACAGUGAAAUGGACAGAAGGGCAGAGCAA | 0.0227
12 | AGAAUCUUUUGGGAGCUCCAGCACAGUGAAAUGGACAGAAGGGCAGAGCAA | 0.296
13 | AGUUCGCGCCGGGAGCUCCAGCACAGUGAAAUGGACAGAAGGGUGGAGCAA | 2.53
14 | AGUUCUUCUCGGGAGCUCCAGCACAGAUAAAUGGACAGAAGGGCAGAGCAA | 0.824
15 | AGUUCUUCUCGGGUACUCCAGCACAGUGAAAUGGACAGAAGGGCAGAGCAA | 0.472
16 | AGUUGAGCAAGGGAGCUCCAGCACAGUGAAAUGGACAGAAGGGCAGAGCAA | 0.124
17 | AGUUUCUUUUGGGAGCUCCAGCACAGUGAAAUGGACAGAAGGCGAGAGCAA | 1.3
18 | AGUUAGGGAUGGGAGCUCCAGCACAGUGAAAUGGACAUAAGGGCAGAGCAA | 0.000717
19 | AGUUAUAUAUGGGAGCUCCAGCACAGUAAAAUGGACAGAAGGGCAGAGCAA | 0.0134
20 | AGUUGACGACGGGAGCUCCAGCACAGUAGAAUGGACAGAAGGGCAGAGCAA | 1.98
21 | AGUUGCUGCUGGGAGCUCCAGCACAGUGAAAUGGACAGUCGGGCAGAGCAA | 0.276
22 | AGUUGCUGCUGGGAGCUCCAGCACAGUGAAAUGGACAGAAAAGCAGAGCAA | 0.141
23 | AGUUUCUUUUGCAAGCUCCAGCACAGUGAAAUGGACAGAAGGGCAGAGCAA | 0.0253
24 | AGUUAUAUAUGGGAGCUCCAGCACAGUGAAGUGGACAGAAGGGCAGAGCAA | 0.12
25 | AGUUUCUUUUGGGAGCUCCAGCACAGUGAAAUGGACAGUGGGGCAGAGCAA | 0.0207
26 | AGUUUCUUUUGUCAGCUCCAGCACAGUGAAAUGGACAGAAGGGCAGAGCAA | 0.00926

Row | Variant | exon inclusion enrichment index
27 | AGUUCUUCUCGGGAGCUGUAGCACAGUGAAAUGGACAGAAGGGCAGAGCAA | 0.674
28 | AGUUCGCGCCGGGAGCUCCAGCACAGUGAAUAGGACAGAAGGGCAGAGCAA | 0.77
29 | AGUUACCACCGGGAGCUCCAAUACAGUGAAAUGGACAGAAGGGCAGAGCAA | 1.26
30 | AGUCCCUUUUGGGAGCUCCAGCACAGUGAAAUGGACAGAAGGGCAGAGCAA | 0.112
31 | AGUUCUUCUCGGGAGCUCCAGCACAGUGAAAUGGAUCGAAGGGCAGAGCAA | 1.55
32 | AGCCAGGGAUGGGAGCUCCAGCACAGUGAAAUGGACAGAAGGGCAGAGCAA | 0.127
33 | AGUUGAAGAAGGGAGCUCCAGCACAGUGAAAUGGACAGAAGGGGGGAGCAA | 0.124
34 | AGUUCUUCUCGGGAGCUCCAGCACAGCAAAAUGGACAGAAGGGCAGAGCAA | 1.89
35 | AGUUGACGACGGGAGCUCCUUCACAGUGAAAUGGACAGAAGGGCAGAGCAA | 2.83
36 | AGUUCACACAGGGAGCUCCAGCACAGUCCAAUGGACAGAAGGGCAGAGCAA | 0.0814
37 | AGUUUCUUUUGGGAGCUCCACAACAGUGAAAUGGACAGAAGGGCAGAGCAA | 0.108
38 | AGUUGACGACGGGAGCUCCAGCACAGUGAAAUGGACAGAAGGCUAGAGCAA | 2.49
39 | AGUUACCACCGGGAGCUCCAGCACAGUCCAAUGGACAGAAGGGCAGAGCAA | 1.72
40 | AGUUUCUUUUGGGAGCUCCAGCACAGUGAAAUGGACAGAAUGGCAGAGCAA | 0.17
41 | AGUUCGCGCCGGGAGCUCCAGCACAGUGAAAUGGACAGAAGGCGAGAGCAA | 6.55
42 | AGUUUCUUUUGGGAGCUCCAGCACAGUGAAAGAGACAGAAGGGCAGAGCAA | 0.0116
43 | AGUUUCUUUUGGGAGCUCUGGCACAGUGAAAUGGACAGAAGGGCAGAGCAA | 0.0101
44 | AGUUCUUCUCGGGAGCUCCACGACAGUGAAAUGGACAGAAGGGCAGAGCAA | 3.01
45 | AGUUGAAGAAGGGAGCUCCAGCACAGUGAAGUGGACAGAAGGGCAGAGCAA | 1.04
46 | AGUUGACGACGGGAGCUCCAGCACACAGAAAUGGACAGAAGGGCAGAGCAA | 3.61
47 | AGUUGAAGAAGGGAGCUCCAGCACAGUGAGCUGGACAGAAGGGCAGAGCAA | 0.0339
48 | AGUUAGGGAUGGGAGGCCCAGCACAGUGAAAUGGACAGAAGGGCAGAGCAA | 0.00106
49 | AGUUGGCGCUGGGAGCUCCAGCACAGUGAAAUGGACAGAAGGGCAGAGCAA | 0.331
50 | AAAUUCUUUUGGGAGCUCCAGCACAGUGAAAUGGACAGAAGGGCAGAGCAA | 0.155
51 | AGUUGCUGCUGGGAGCUCCAGCACAGUGAAAUGGACAGAGGGGCAGAGCAA | 0.0976
